# From US20080058263A1 (published 2008)
# T1: VEGFR-3-Fc (UniProt P35916 25-328)
# T1 construct: domain: first three Ig domains; conditioned supernatant of 293T cells; also called VEGFR-3-Fc fusion protein; not shown: Fc fragment of the pIg vector
# T1 sequence (looked up): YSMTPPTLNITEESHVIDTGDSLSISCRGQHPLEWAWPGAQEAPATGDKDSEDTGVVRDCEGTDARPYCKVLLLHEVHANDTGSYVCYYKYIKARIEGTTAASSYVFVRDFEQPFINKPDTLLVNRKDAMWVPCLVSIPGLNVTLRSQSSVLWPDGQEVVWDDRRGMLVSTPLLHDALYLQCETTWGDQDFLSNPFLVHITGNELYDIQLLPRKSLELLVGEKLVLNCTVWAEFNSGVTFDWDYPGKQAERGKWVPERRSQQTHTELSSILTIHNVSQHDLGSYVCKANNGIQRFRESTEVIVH
# How the values were obtained:
# Assay in all cases: receptor-Fc IP
# VEGFR-2-Fc = target: T2, VEGFR-2-Fc (UniProt P35968 20-322)
# T2 construct: domain: first 3 Ig domains; conditioned supernatant of 293T cells; also called VEGFR-2-Fc fusion protein; not shown: Fc fragment of the pIg vector
# T2 sequence (P35968 20-322): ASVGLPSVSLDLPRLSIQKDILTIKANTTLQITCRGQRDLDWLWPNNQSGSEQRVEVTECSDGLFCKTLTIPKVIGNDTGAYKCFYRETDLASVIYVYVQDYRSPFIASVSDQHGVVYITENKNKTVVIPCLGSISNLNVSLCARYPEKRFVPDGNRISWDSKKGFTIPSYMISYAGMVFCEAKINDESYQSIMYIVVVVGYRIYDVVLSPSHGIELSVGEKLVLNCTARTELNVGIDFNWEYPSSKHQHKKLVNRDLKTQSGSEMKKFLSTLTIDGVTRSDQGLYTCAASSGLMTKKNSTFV
# Summary of the method: (§1)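 fusion protein at 400 ng/ml in an IP mix (PBS, 1.5% BSA, 0.06% Tween 20, 3 μg/ml heparin) was combined with sample supernatant at a 1:2 ratio. Bound ligand captured by immunoprecipitation with pentahistidine antibody.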
# VEGFR-1-Fc = target: T3, VEGFR-1-Fc (UniProt P17948 27-338)
# T3 construct: domain: first three Ig domains; expressed in Drosophila S2 cells, purified on Protein A sepharose; also called VEGFR-1-Fc fusion protein; not shown: Fc fragment from the Signal-pIgPlus vector
# T3 sequence (P17948 27-338): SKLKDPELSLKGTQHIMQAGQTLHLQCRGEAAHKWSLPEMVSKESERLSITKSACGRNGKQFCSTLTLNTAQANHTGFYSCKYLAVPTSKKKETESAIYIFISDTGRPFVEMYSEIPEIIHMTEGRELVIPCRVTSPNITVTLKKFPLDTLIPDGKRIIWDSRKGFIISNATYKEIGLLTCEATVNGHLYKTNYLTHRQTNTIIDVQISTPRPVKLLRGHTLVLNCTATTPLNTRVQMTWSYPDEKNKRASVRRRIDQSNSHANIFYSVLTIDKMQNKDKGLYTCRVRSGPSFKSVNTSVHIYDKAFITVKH
# Summary of the method: as §1
# VEGFR-3-Fc = target: T1, VEGFR-3-Fc
# Summary of the method: as §1
Binder,binding result (VEGFR-2-Fc),binding result (VEGFR-1-Fc),binding result (VEGFR-3-Fc)
71-11 (ligand) GQNHHEVVKSIDNEWRKTQCMPREVCIDVGKEYPDEIEYIFKPSCVPLMRCGGCCNSEGLQCVPTEESNITMQIMRITVPLSQGPKPVTISFLQHNKCECRPKKD,no binding,no binding,no binding
33-11 (ligand) GQNHHEVVKSIDNEWRKTQCMPIETLVDIFQEYPDEIEYIFKPPCVSVYRCGGCCNSEGLQCVPTEESNITMQIMRITVPLSQGPKPVTISFLQHNKCECRPKKD,no binding,no binding,no binding
21-11 (ligand) AHYNTEILKSIDNEWRKTQCMPREVCIDVGKEYPDEIEYIFKPSCVPLMRCGGCCNSEGLQCVPTEESNITMQIMRITVPLSQGPKPVTISFLQHNKCECRPKKD,no binding,no binding,no binding
31-11 (ligand) GQNHHEVVKSIDNEWRKTQCMPIETLVDIFQEYPDEIEYIFKPSCVPLMRCGGCCNSEGLQCVPTEESNITMQIMRITVPLSQGPKPVTISFLQHNKCECRPKKD,no binding,no binding,no binding
23-11 (ligand) AHYNTEILKSIDNEWRKTQCMPREVCIDVGKEYPDEIEYIFKPPCVSVYRCGGCCNSEGLQCVPTEESNITMQIMRITVPLSQGPKPVTISFLQHNKCECRPKKD,no binding,no binding,no binding
71-15 (ligand) GQNHHEVVKSIDNEWRKTQCMPREVCIDVGKEYPDEIEYIFKPSCVPLMRCGGCCNSEGLQCVPTEESNITMQIMRITVPLSQGPKPVTISFANHTSCRCMSKLD,no binding,no binding,no binding
71-13 (ligand) GQNHHEVVKSIDNEWRKTQCMPREVCIDVGKEYPDEIEYIFKPSCVPLMRCGGCCNDEGLECVPTEESNITMQIMRITVPLSQGPKPVTISFANHTSCRCMSKLD,no binding,no binding,no binding
31-3 (ligand) GQNHHEVVKSIDNEWRKTQCMPIETLVDIFQEYPDEIEYIFKPSCVPLMRCGGCCNDEGLECVPTEESNITMQIMRITVPLSQGPKPVTISFLQHNKCECRPKKD,no binding,no binding,no binding
74-11 (ligand) GQNHHEVVKSIDNEWRKTQCMPREVCIDVGKEFGVATNTFFKPSCVPLMRCGGCCNSEGLQCVPTEESNITMQIMRITVPLSQGPKPVTISFLQHNKCECRPKKD,no binding,no binding,no binding
73-15 (ligand) GQNHHEVVKSIDNEWRKTQCMPREVCIDVGKEYPDEIEYIFKPPCVSVYRCGGCCNSEGLQCVPTEESNITMQIMRITVPLSQGPKPVTISFANHTSCRCMSKLD,binds,no binding,no binding
"82-9 (ligand, clone entry) AHYNTEILKFMDVYQRSYCHPIETLVDIFQEFGVATNTFFKPPCVSVYRCGGCCNDEGLECVPTEESNITMQIMRITVPLSQGPKPVTISFLQHNKCECRPKKDL",binds,binds,binds
"14-9 (ligand, clone entry) GQNHHEVVKFMDVYQRSYCHPIETLVDIFQEFGVATNTFFKPSCVPLMRCGGCCNDEGLECVPTEESNITMQIMRITVPLSQGPKPVTISFLQHNKCECRPKKDL",binds,binds,binds
74-10 (ligand) GQNHHEVVKSIDNEWRKTQCMPREVCIDVGKEFGVATNTFFKPSCVPLMRCGGCCNDEGLECMNTSTSYLSKTLFEITVPLSQGPKPVTISFLQHNKCECRPKKD,binds,no binding,no binding
74-12 (ligand) GQNHHEVVKSIDNEWRKTQCMPREVCIDVGKEFGVATNTFFKPSCVPLMRCGGCCNSEGLQCMNTSTSYLSKTLFEITVPLSQGPKPVTISFLQHNKCECRPKKD,binds,no binding,no binding
12-5 (ligand) GQNHHEVVKFMDVYQRSYCHPIETLVDIFQEFGVATNTFFKPPCVSVYRCGGCCNDEGLECVPTEESNITMQIMRIKPHQGQHIGEMSFANHTSCRCMSKLDLVF,no binding,binds,no binding
"82-7 (ligand, clone entry) AHYNTEILKFMDVYQRSYCHPIETLVDIFQEFGVATNTFFKPPCVSVYRCGGCCNSEGLQCVPTEESNITMQIMRIKPHQGQHIGEMSFANHTSCRCMSKLDLVF",binds,binds,binds
12-1 (ligand) GQNHHEVVKFMDVYQRSYCHPIETLVDIFQEFGVATNTFFKPPCVSVYRCGGCCNDEGLECVPTEESNITMQIMRIKPHQGQHIGEMSFLQHNKCECRPKKDLVF,binds,binds,binds
74-8 (ligand) GQNHHEVVKSIDNEWRKTQCMPREVCIDVGKEFGVATNTFFKPSCVPLMRCGGCCNSEGLQCMNTSTSYLSKTLFEIKPHQGQHIGEMSFANHTSCRCMSKLD,binds,no binding,no binding
22-16 (ligand) AHYNTEILKSIDNEWRKTQCMPREVCIDVGKEFGVATNTFFKPPCVSVYRCGGCCNSEGLQCMNTSTSYLSKTLFEITVPLSQGPKPVTISFANHTSCRCMSKLDLVFEQKLISEEDLNSAVDHHHHHH,binds,no binding,binds
82-5 (ligand) AHYNTEILKFMDVYQRSYCHPIETLVDIFQEFGVATNTFFKPPCVSVYRCGGCCNDEGLECVPTEESNITMQIMRIKPHQGQHIGEMSFANHTSCRCMSKLD,no binding,binds,no binding
